From US20240352438A1, “MEANS AND METHODS FOR DETOXIFYING OCHRATOXIN A” (DSM Austria GmbH, priority 2021, published 2024) come the findings set out here.

The nature of series [1]: Enzymatic activity comparison: activity remaining after 65° C. for 10 min at pH 6.0, relative to SEQ ID NO: 1. The format is physicochemical. Here is the method: To compare the temperature behavior and thermostability of selected enzymes to one another, enzyme was incubated at 65° C. for 10 min at pH 6.0. The enzymatic activity remaining after incubation was compared to the remaining activity of the enzyme of SEQ ID NO: 1 after incubation, the latter being set to 100%, see Table 16.

Series [2] is described as follows: OTA detoxification activity assay (specific activity, fluorescence reduction ex/em 390/450 nm). The class given is biochemical. As to conditions: SEQ ID NO: 1 = 100%. The method in brief: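 Recombinant enzyme preparation with 200 ng/mL OTA in 100 mM sodium phosphate, at pH 6.0 and pH 7.5, 37° C. Degradation followed as the fall in fluorescence at ex/em 390/450 nm. Specific activity taken from the initial linear slope; one unit degrades 1 μmol OTA per min at a starting OTA of […].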

B1: 216 (protein)
chain: MTTRTRILTAFLSLLAANACAADAAPAAPHTVVLRAARMFDGASGKLVDHPQLTIVGNKIVRIAQGDKAEVPAGAEVVDLGDATLLPGFIDAHVHLSGQSSDQWYGDFFDNMMRFPAEQALYGAYYARITLEAGFTSVRDVGSTDWVALGLRNAIDAGKVPGPRMLVSNYAVGSTGGHADQDPIPPHKLPLAGPLQGVCNGPEECRAAVRYQIKYGANVIKFMPSGGVLSLSDPVDAPELSQDEMNAVIGESHAWGRKVAAHAHGDKAAKMAVAAGVDSIEHGSFIEDDTLRAMKAKNVYLVPTISAIAHVEEKIGTFPPVIAEKGRAAAAHLRQTFRHAVQIGVPIALGTDAGVGAHGSNAREFRYMVENGLTPAQALLAGTANAARLLGTFDRVGTLEAGKLADVVAVPGNPIADITVTERPLFVMKDGVVVRRDAVR
modifications: exemplary polypeptide
B1: the “Enzymatic activity remaining after incubation, compared to SEQ ID NO: 1 (set to 100%)” value in series [1] is 14%. In addition, in series [2], the “Specific OTA detoxification activities in % compared to the enzyme of SEQ ID NO: 1, pH 6.0” value was determined as 147% and the “Specific OTA detoxification activities in % compared to the enzyme of SEQ ID NO: 1, pH 7.5” value is 115%.

B2: 225 (protein)
chain: MTTRTRILTAFLSLLAANACAADAAPAAPHTVVLRAARMFDGASGKLVDHPQLTIVGNKIVRIAQGDKAEVPAGAEVVDLGDATLLPGFIDAHVHLSGQSSDNWYGDFFDNMMRFPAEQALYGAYYARITLEAGFTSVRDVGSTDWVALGLRNAIDAGKVPGPRMLVSNYAVGSTGGHADQDPIPPHKLPLAGPLQGVCNGPEECRAAVRYQIKYGANVIKFMPSAGVLSLSDPVDAPELSQDEMNAVIGESHAWGRKVAAHAHGDKAAKMAVAAGVDSIEHGSFIEDDTLRAMKAKNVYLVPTISAIAHVEEKIGTFPPVIAEKGRAAAAHLRQTFRHAVQIGVPIALGTDAGVGAHGSNAREFRYMVENGLTPAQALLAGTANAARLLGTFDRVGTLEAGKLADVVAVPGNPIADITVTERPLFVMKDGVVVRRDAVR
modifications: exemplary polypeptide
Regarding B2, in series [1], the “Enzymatic activity remaining after incubation, compared to SEQ ID NO: 1 (set to 100%)” value is reported as 84%. In series [2], the “Specific OTA detoxification activities in % compared to the enzyme of SEQ ID NO: 1, pH 6.0” value is 24% and the “Specific OTA detoxification activities in % compared to the enzyme of SEQ ID NO: 1, pH 7.5” value is 27%.

B3: 220 (protein)
chain: MTTRTRILTAFLSLLAANACAADAAPAAPHTVVLRAARMFDGASGKLVDHPQLTIVGNKIVRIAQGDKAEVPAGAEVVDLGDATLLPGFIDAHVHLSGQSSDNWYGDFFDNMMRFPAEQALYGAYYARITLEAGFTSVRDVGSTDWVALGLRNAIDAGKVPGPRMLVSNYAVGSTGGHADQDPIPPGKLPLAGPLQGVCNGPEECRAAVRYQIKYGANVIKFMPSGGVLSLSDPVDAPELSQDEMNAVIGESHAWGRKVAAHAHGDKAAKMAVAAGVDSIEHGSFIEDDTLRAMKAKNVYLVPTISAIAHVEEKIGTFPPVIAEKGRAAAAHLRQTFRHAVQIGVPIALGTDAGVGAHGSNAREFRYMVENGLTPAQALLAGTANAARLLGTFDRVGTLEAGKLADVVAVPGNPIADITVTERPLFVMKDGVVVRRDAVR
modifications: exemplary polypeptide
For B3, the “Enzymatic activity remaining after incubation, compared to SEQ ID NO: 1 (set to 100%)” value in series [1] came out at 22%. In series [2], the “Specific OTA detoxification activities in % compared to the enzyme of SEQ ID NO: 1, pH 6.0” value was 85% and the “Specific OTA detoxification activities in % compared to the enzyme of SEQ ID NO: 1, pH 7.5” value was found to be 83%.

B4: 227 (protein)
chain: MTTRTRILTAFLSLLAANACAADAAPAAPHTVVLRAARMFDGASGKLVDHPQLTIVGNKIVRIAQGDKAEVPAGAEVVDLGDATLLPGFIDAHVHLSGQSSDNWYGDFFDNMMRFPAEQALYGAYYARITLEAGFTSVRDVGSTDWVALGLRNAIDAGKVPGPRMLVSNYAVGSTGGHADQDPIPPHKLPLAGPLQGVCNGPEECRAAVRYQIKYGANVIKFMPSSGVLSLSDPVDAPELSQDEMNAVIGESHAWGRKVAAHAHGDKAAKMAVAAGVDSIEHGSFIEDDTLRAMKAKNVYLVPTISAIAHVEEKIGTFPPVIAEKGRAAAAHLRQTFRHAVQIGVPIALGTDAGVGAHGSNAREFRYMVENGLTPAQALLAGTANAARLLGTFDRVGTLEAGKLADVVAVPGNPIADITVTERPLFVMKDGVVVRRDAVR
modifications: exemplary polypeptide
For B4, the “Enzymatic activity remaining after incubation, compared to SEQ ID NO: 1 (set to 100%)” value in series [1] is reported as 24%. In series [2], the “Specific OTA detoxification activities in % compared to the enzyme of SEQ ID NO: 1, pH 6.0” value was 47% and the “Specific OTA detoxification activities in % compared to the enzyme of SEQ ID NO: 1, pH 7.5” value turned out to be 36%.

B5: 217 (protein)
chain: MTTRTRILTAFLSLLAANACAADAAPAAPHTVVLRAARMFDGASGKLVDHPQLTIVGNKIVRIAQGDKAEVPAGAEVVDLGDATLLPGFIDAHVHLSGQSSDNWYGDFFDNMMRFPAEQALYGAYYARIELEAGFTSVRDVGSTDWVALGLRNAIDAGKVPGPRMLVSNYAVGSTGGHADQDPIPPHKLPLAGPLQGVCNGPEECRAAVRYQIKYGANVIKFMPSGGVLSLSDPVDAPELSQDEMNAVIGESHAWGRKVAAHAHGDKAAKMAVAAGVDSIEHGSFIEDDTLRAMKAKNVYLVPTISAIAHVEEKIGTFPPVIAEKGRAAAAHLRQTFRHAVQIGVPIALGTDAGVGAHGSNAREFRYMVENGLTPAQALLAGTANAARLLGTFDRVGTLEAGKLADVVAVPGNPIADITVTERPLFVMKDGVVVRRDAVR
modifications: exemplary polypeptide
On to B5, for which, in series [1], the “Enzymatic activity remaining after incubation, compared to SEQ ID NO: 1 (set to 100%)” value came out at 36%. Besides, in series [2], the “Specific OTA detoxification activities in % compared to the enzyme of SEQ ID NO: 1, pH 6.0” value came to 153% and the “Specific OTA detoxification activities in % compared to the enzyme of SEQ ID NO: 1, pH 7.5” value was found to be 139%.

B6: 218 (protein)
chain: MTTRTRILTAFLSLLAANACAADAAPAAPHTVVLRAARMFDGASGKLVDHPQLTIVGNKIVRIAQGDKAEVPAGAEVVDLGDATLLPGFIDAHVHLSGQSSDNWYGDFFDNMMRFPAEQALYGAYYARITLEAGFTSVRDVGSTDWVALGLRNAIDAGKVPGPRMLVSNYAVGSTGGHADQDPIPPDKLPLAGPLQGVCNGPEECRAAVRYQIKYGANVIKFMPSGGVLSLSDPVDAPELSQDEMNAVIGESHAWGRKVAAHAHGDKAAKMAVAAGVDSIEHGSFIEDDTLRAMKAKNVYLVPTISAIAHVEEKIGTFPPVIAEKGRAAAAHLRQTFRHAVQIGVPIALGTDAGVGAHGSNAREFRYMVENGLTPAQALLAGTANAARLLGTFDRVGTLEAGKLADVVAVPGNPIADITVTERPLFVMKDGVVVRRDAVR
modifications: exemplary polypeptide
Consider B6, for which the “Enzymatic activity remaining after incubation, compared to SEQ ID NO: 1 (set to 100%)” value in series [1] is on record as 28%. In series [2], the “Specific OTA detoxification activities in % compared to the enzyme of SEQ ID NO: 1, pH 6.0” value amounted to 104% and the “Specific OTA detoxification activities in % compared to the enzyme of SEQ ID NO: 1, pH 7.5” value is 101%.

B7: 224 (protein)
chain: MTTRTRILTAFLSLLAANACAADAAPAAPHTVVLRAARMFDGASGKLVDHPQLTIVGNKIVRIAQGDKAEVPAGAEVVDLGDATLLPGFIDAHVHLSGQSSDNWYGDFFDNMMRFPAEQALYGAYYARITLEAGFTSVRDVGSTDWVALGLRNAIDAGKVPGPRMLVSNYAVGSTGGHADQDPIPPHRLPLAGPLQGVCNGPEECRAAVRYQIKYGANVIKFMPSGGVLSLSDPVDAPELSQDEMNAVIGESHAWGRKVAAHAHGDKAAKMAVAAGVDSIEHGSFIEDDTLRAMKAKNVYLVPTISAIAHVEEKIGTFPPVIAEKGRAAAAHLRQTFRHAVQIGVPIALGTDAGVGAHGSNAREFRYMVENGLTPAQALLAGTANAARLLGTFDRVGTLEAGKLADVVAVPGNPIADITVTERPLFVMKDGVVVRRDAVR
modifications: exemplary polypeptide
Turning to B7, the “Enzymatic activity remaining after incubation, compared to SEQ ID NO: 1 (set to 100%)” value in series [1] is given as 40%. In series [2], the “Specific OTA detoxification activities in % compared to the enzyme of SEQ ID NO: 1, pH 6.0” value was 169% and the “Specific OTA detoxification activities in % compared to the enzyme of SEQ ID NO: 1, pH 7.5” value was 132%.

B8: 219 (protein)
chain: MTTRTRILTAFLSLLAANACAADAAPAAPHTVVLRAARMFDGASGKLVDHPQLTIVGNKIVRIAQGDKAEVPAGAEVVDLGDATLLPGFIDAHVHLSGQSSDNWYGDFFDNMMRFPAEQALYGAYYARITLEAGFTSVRDVGSTDWVALGLRNAIDAGKVPGPRMLVSNYAVGSTGGHADQDPIPPEKLPLAGPLQGVCNGPEECRAAVRYQIKYGANVIKFMPSGGVLSLSDPVDAPELSQDEMNAVIGESHAWGRKVAAHAHGDKAAKMAVAAGVDSIEHGSFIEDDTLRAMKAKNVYLVPTISAIAHVEEKIGTFPPVIAEKGRAAAAHLRQTFRHAVQIGVPIALGTDAGVGAHGSNAREFRYMVENGLTPAQALLAGTANAARLLGTFDRVGTLEAGKLADVVAVPGNPIADITVTERPLFVMKDGVVVRRDAVR
modifications: exemplary polypeptide
As to B8, the “Enzymatic activity remaining after incubation, compared to SEQ ID NO: 1 (set to 100%)” value in series [1] was 38%. In series [2], the “Specific OTA detoxification activities in % compared to the enzyme of SEQ ID NO: 1, pH 6.0” value is 87% and the “Specific OTA detoxification activities in % compared to the enzyme of SEQ ID NO: 1, pH 7.5” value turned out to be 88%.

B9: 230 (protein)
chain: MTTRTRILTAFLSLLAANACAADAAPAAPHTVVLRAARMFDGASGKLVDHPQLTIVGNKIVRIAQGDKAEVPAGAEVVDLGDATLLPGFIDAHVHLSGQSSDNWYGDFFDNMMRFPAEQALYGAYYARITLEAGFTSVRDVGSTDWVALGLRNAIDAGKVPGPRMLVSNYAVGSTGGHADQDPIPPHKLPLAGPLQGVCNGPEECRAAVRYQIKYGANVIKFMPSGGVLTLSDPVDAPELSQDEMNAVIGESHAWGRKVAAHAHGDKAAKMAVAAGVDSIEHGSFIEDDTLRAMKAKNVYLVPTISAIAHVEEKIGTFPPVIAEKGRAAAAHLRQTFRHAVQIGVPIALGTDAGVGAHGSNAREFRYMVENGLTPAQALLAGTANAARLLGTFDRVGTLEAGKLADVVAVPGNPIADITVTERPLFVMKDGVVVRRDAVR
modifications: exemplary polypeptide
Consider B9, for which the “Enzymatic activity remaining after incubation, compared to SEQ ID NO: 1 (set to 100%)” value in series [1] came to 32%. Moreover, in series [2], the “Specific OTA detoxification activities in % compared to the enzyme of SEQ ID NO: 1, pH 6.0” value was 141% and the “Specific OTA detoxification activities in % compared to the enzyme of SEQ ID NO: 1, pH 7.5” value is on record as 127%.
